From patent US20240294668A1 (SHANGHAI SYNVIDA BIOTECHNOLOGY, published 2024)

Assays:
[1] = target: T1, human FIXa (activated coagulation factor IX) (human, UniProt P00740 47-191; P00740 227-461); experiment: cell-based or functional assay
[2] = target: T1, human FIXa (activated coagulation …); experiment: ELISA, FIXa antigen coated on the plate, anti-mouse secondary antibody, OD450
Method: After culturing hybridoma cells for 7 days, ELISA was used for detecting positive antibodies. 0.1 μg/100 μl of FIXa antigen was coated on an ELISA plate (CORNING), incubated at 37° C. for 1.5 h; then blocked with 2% BSA at 37° C. for 1 h; and then primary antibody, the supernatant of cultured cells, was added and incubated at 37° C. for 1.5 h. After that, mouse secondary antibody was added and incubated at 37° C. for 30 min. Finally, chromogenic substrate TMB (Thermo) was added for 5 min at room temperature in dark, then stop solution 2M H₂SO₄ was added to terminate the reaction. Antibody-positive cell lines were screened according to the absorbance value measured at 450 nm by a spectrophotometer (Thermo Fisher scientific company). Then the cell lines were cultured for cloning in a semi-solid medium ([…] company), with single clones selected into 96-well plates after 7 days. […]
Following the instructions provided in the Sigma company's subtype detection kit, the antigen was coated, blocked, incubated with primary antibody (0.1 μg/100 μl), incubated with isotype-specific reagent at room temperature for 30 minutes, incubated with secondary antibody (R-antiGoat-HRP) for chromogen development, with stop solution added to terminate the reaction, and finally the absorbance was measured at 450 nm. […]

T1 sequence (P00740 47-191 limits assumed, chain 1 of 2): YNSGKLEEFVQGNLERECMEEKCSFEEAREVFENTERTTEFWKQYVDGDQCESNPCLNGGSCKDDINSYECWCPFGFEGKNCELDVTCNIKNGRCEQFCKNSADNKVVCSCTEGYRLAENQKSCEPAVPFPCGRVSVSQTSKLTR
T1 sequence (P00740 227-461 limits assumed, chain 2 of 2): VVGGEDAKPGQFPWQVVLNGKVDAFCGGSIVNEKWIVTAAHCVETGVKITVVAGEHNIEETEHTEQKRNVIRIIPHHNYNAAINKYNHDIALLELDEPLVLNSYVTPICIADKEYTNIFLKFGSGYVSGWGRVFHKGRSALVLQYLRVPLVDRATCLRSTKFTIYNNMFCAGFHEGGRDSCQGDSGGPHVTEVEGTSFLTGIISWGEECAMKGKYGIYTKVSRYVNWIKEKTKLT

activated partial thromboplastin time (APTT), IC50 [1]: 7.71 µg/mL | activated partial thromboplastin time (APTT), fold over control [1]: 3.5 times | EC50 [2]: 0.0947 µg/mL
B1: FIXa-4 antibody (antibody, V domains shown)
VH: QVTLKESGPGILKPSQTLSLTCSFSGFSLNTPGMGVGWIRQPSGKGLEWLAHIWWDDDKYYNPSLKSQLTISKDTSRNQVFLKITSVDTADTATYYCARSDDVSYALDYWGQGTSVTVSS
VL: DIQMTQSPASLSASVGETVTITCRASENIDSYLAWYQQKQGKSPQLLVYNAKTLADGVPSRFSGSGSGTQFSLKIDSLQPEDFGSHYCQHHDGTTWTFGGGTKLEIK
notes: A subtype test is described, but the isotype and constant regions are not reported; also called anti-FIXa monoclonal antibody; FIX-4 antibody
